Laboratory results reported in patent publication US20220251227A1 (Eli Lilly, published 2022).

Assays:
human GITR [1] = target: T1, human GITR (human, UniProt Q9Y5U5 26-241); assay: cell-based or functional assay
T1 sequence: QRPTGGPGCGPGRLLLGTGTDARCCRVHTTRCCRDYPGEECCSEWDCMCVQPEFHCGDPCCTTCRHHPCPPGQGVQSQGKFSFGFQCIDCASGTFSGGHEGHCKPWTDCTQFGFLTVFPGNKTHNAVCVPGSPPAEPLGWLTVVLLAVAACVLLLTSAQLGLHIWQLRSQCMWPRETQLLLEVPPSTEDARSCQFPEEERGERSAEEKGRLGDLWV

human GITR [2] = target: T1, human GITR; assay: flow cytometry on Jurkat human GITR/NFkB-Luc2 cells, anti-kappa PE detection, geometric mean of 3
Method: Jurkat human GITR/NFkB-Luc2 cells (CS184004) were purchased from Promega and maintained in RPMI1640 media+10% FBS (HyClone SH30070.3)+400 μg/mL hygromycin B+600 μg/mL G418.
Jurkat human GITR/NFkB-Luc2 and Jurkat cynomolgus monkey GITR/NFkBluc cells are resuspended in FACS buffer (PBS+1% BSA+0.01% sodium azide) at 1 million cells/mL and 5 μl Fc block/mL (BioLegend) is added and incubated at 4° C. for 20 min. Cells are washed with FACS buffer and resuspended at 1e6 cells/mL in FACS buffer and added to a polypropylene 96-well plate at 100 μl/well for 100,000 cells/well. 100 μl/well of 2X antibody dose titrations diluted in FACS buffer are added to cells and incubated 45 minutes at 4° C. Cells are washed twice with 200 μl/well FACS buffer and resuspended in 12.5 μg/mL anti-human Ig light chain kappa/PE secondary antibody (Invitrogen #PA1-74408) in FACS buffer and incubated for 45 minutes at 4° C. Cells are washed twice with 200 μl/well FACS buffer and resuspended in 200 μl FACS buffer. Samples are read on a Millipore EasyCyte Cytometer and median fluorescence intensity values are calculated using GuavaSoft 3.3 InCyte software. EC₅₀ values are calculated for each of 3 experiment replicates and the EC₅₀ Geometric Mean +/−Error (Delta Method) is calculated from these 3 results. […]

Rabbit serum albumin = target: T2, Rabbit serum albumin (rabbit, UniProt P49065 25-608); assay: SPR, Biacore 8K, albumin immobilized on CM5, 25 C
T2 construct: Bought protein, immobilized on a CM5 chip by amine coupling at 118 RU; also called Rabbit SA
Method: Binding of Antibody I and Antibody II to various serum albumins is carried out on Biacore 8K instrument. The immobilization of the serum albumin to a Series S Sensor Chip CM5 (Cytiva 29149603) surface is performed according to the manufacturer's instructions (Amine Coupling Kit BR-1000-50). Briefly, carboxyl groups on the sensor chip surfaces (flow cell 1 and 2) are activated by injecting 70 μL of a mixture containing 75 mg/ml 1-Ethyl-3-(3-dimethylaminopropyl) carbodiimide hydrochloride (EDC), and 11.5 mg/ml N-Hydroxysuccinimide (NHS) at 10 μl/min. Human, cynomolgus monkey, rat, mouse, dog, pig, cow, and rabbit serum albumin are diluted in 10 mM sodium acetate pH 4.0 (BR-1003-49) at 0.8, 0.8, 0.8, 2.5, 0.8, 1, 1, and 1.5 μg/m1 then injected over the activated chip surfaces (flow cell 2, channel 1 to 8) at 10 μl/min for 100 seconds. […]
The antibodies of Examples 1 and 2 (i.e., Antibody I and II, respectively) are diluted in HBS-EP+buffer (10 mM HEPES pH 7.6, 150 mM NaCl, 3 mM EDTA, 0.05% Polysorbate 20) at concentrations of 1000, 333.3, 111.1, 37.04, 12.35, 4.12, 1.37, 0.457, 0.152, 0.051 and 0.017 nM. […] The resulting sensorgrams are analyzed using Biacore 8K Insight Evaluation Software (version 3.0.11.15423) 1:1 binding kinetics model fitting to calculate the binding kinetic parameters: association rate (ka), dissociation rate (kd), and equilibrium dissociation constant (KD).

human GITR [3] = target: T1, human GITR; assay: cell-based or functional assay; remark: listed apart in the source
cynomolgus monkey GITR [4] = target: cynomolgus monkey GITR (cynomolgus monkey); assay: cell-based or functional assay
cynomolgus monkey GITR [5] = target: T3, cynomolgus monkey GITR (cynomolgus monkey); assay: flow cytometry on Jurkat cyno GITR/NFkBluc cells, anti-kappa PE detection, geometric mean of 3
T3 construct: whole, on cells; Stood on Jurkat cyno GITR/NFkBluc cells; also called cyno GITR
Method: Jurkat human GITR/NFkB-Luc2 and Jurkat cynomolgus monkey GITR/NFkBluc cells are resuspended in FACS buffer (PBS+1% BSA+0.01% sodium azide) at 1 million cells/mL and 5 μl Fc block/mL (BioLegend) is added and incubated at 4° C. for 20 min. Cells are washed with FACS buffer and resuspended at 1e6 cells/mL in FACS buffer and added to a polypropylene 96-well plate at 100 μl/well for 100,000 cells/well. 100 μl/well of 2X antibody dose titrations diluted in FACS buffer are added to cells and incubated 45 minutes at 4° C. Cells are washed twice with 200 μl/well FACS buffer and resuspended in 12.5 μg/mL anti-human Ig light chain kappa/PE secondary antibody (Invitrogen #PA1-74408) in FACS buffer and incubated for 45 minutes at 4° C. Cells are washed twice with 200 μl/well FACS buffer and resuspended in 200 μl FACS buffer. Samples are read on a Millipore EasyCyte Cytometer and median fluorescence intensity values are calculated using GuavaSoft 3.3 InCyte software. EC₅₀ values are calculated for each of 3 experiment replicates and the EC₅₀ Geometric Mean +/−Error (Delta Method) is calculated from these 3 results. The cell binding results shown in Table 5 indicate that both Antibody I and Antibody II bind potently to human GITR and cynomolgus monkey GITR (“cyno GITR”).

Pig serum albumin = target: T4, Pig serum albumin (pig, UniProt P08835 25-607); assay: SPR, Biacore 8K, albumin immobilized on CM5, 25 C, 1:1 model
T4 construct: Bought protein, immobilized on a CM5 chip by amine coupling; also called Pig SA
Method: (§1) Binding of Antibody I and Antibody II to various serum albumins is carried out on Biacore 8K instrument. The immobilization of the serum albumin to a Series S Sensor Chip CM5 (Cytiva 29149603) surface is performed according to the manufacturer's instructions (Amine Coupling Kit BR-1000-50). Briefly, carboxyl groups on the sensor chip surfaces (flow cell 1 and 2) are activated by injecting 70 μL of a mixture containing 75 mg/ml 1-Ethyl-3-(3-dimethylaminopropyl) carbodiimide hydrochloride (EDC), and 11.5 mg/ml N-Hydroxysuccinimide (NHS) at 10 μl/min. Human, cynomolgus monkey, rat, mouse, dog, pig, cow, and rabbit serum albumin are diluted in 10 mM sodium acetate pH 4.0 (BR-1003-49) at 0.8, 0.8, 0.8, 2.5, 0.8, 1, 1, and 1.5 μg/m1 then injected over the activated chip surfaces (flow cell 2, channel 1 to 8) at 10 μl/min for 100 seconds. Human serum albumin was obtained from Sigma Aldrich (St. Louis, Mo.) (Cat. No. A8763).
(§2) The serum albumins are covalently immobilized through free amines onto a carboxymethyl dextran-coated sensor chip CM5 at surface densities of 29-52 resonance units (RU) for human, cynomolgus monkey, rat, mouse, dog, pig, and cow as well as 118 resonance units (RU) for rabbit serum albumin. Excess reactive groups on the surfaces (flow cell 1 and 2) are deactivated by injecting 70 μl of 1 M Ethanolamine hydrochloride-NaOH pH 8.5.
(§3) The antibodies of Examples 1 and 2 (i.e., Antibody I and II, respectively) are diluted in HBS-EP+buffer (10 mM HEPES pH 7.6, 150 mM NaCl, 3 mM EDTA, 0.05% Polysorbate 20) at concentrations of 1000, 333.3, 111.1, 37.04, 12.35, 4.12, 1.37, 0.457, 0.152, 0.051 and 0.017 nM. 180 μl of sample are individually injected sequentially across the immobilized serum albumins on the chip's surface and dissociated for 600 sec at 60 μl/min flow rate at 25° C. The surface is regenerated by injecting 10 mM glycine-HCl pH 1.5 (BR-1003-54) at 60 μl/min for 100 sec. The resulting sensorgrams are analyzed using Biacore 8K Insight Evaluation Software (version 3.0.11.15423) 1:1 binding kinetics model fitting to calculate the binding kinetic parameters: association rate (ka), dissociation rate (kd), and equilibrium dissociation constant (KD).

Mouse serum albumin = target: T5, Mouse serum albumin (mouse, UniProt P07724 25-608); assay: as above
T5 construct: Bought protein, immobilized on a CM5 chip by amine coupling; also called Mouse SA
Method: as §1, §2, §3

Cow serum albumin = target: T6, Cow serum albumin (cow, UniProt P02769 25-607); assay: as above
T6 construct: Bought protein, immobilized on a CM5 chip by amine coupling; also called Cow SA
Method: as §1, §2, §3

[6] = target: T7, Cynomolgus monkey serum albumin (cynomolgus monkey, UniProt A2V9Z4 25-608); assay: as above
T7 construct: Bought protein, immobilized on a CM5 chip by amine coupling; also called Cyno SA
Method: as §1, §2, §3

Human serum albumin = target: T8, Human serum albumin (human, UniProt P02768 25-609); assay: as above
T8 construct: Bought protein, immobilized on a CM5 chip by amine coupling; also called Human SA
Method: as §1, §2, §3

Rat serum albumin = target: T9, Rat serum albumin (rat, UniProt P02770 25-608); assay: as above
T9 construct: Bought protein, immobilized on a CM5 chip by amine coupling; also called Rat SA
Method: as §1, §2, §3

Dog serum albumin = target: T10, Dog serum albumin (dog, UniProt P49822 25-608); assay: as above
T10 construct: Bought protein, immobilized on a CM5 chip by amine coupling; also called Dog SA
Method: as §1, §2, §3

human GITR [7] = target: T1, human GITR; assay: cell-based or functional assay; remark: listed apart in the source

B1: Antibody I (Fab)
heavy: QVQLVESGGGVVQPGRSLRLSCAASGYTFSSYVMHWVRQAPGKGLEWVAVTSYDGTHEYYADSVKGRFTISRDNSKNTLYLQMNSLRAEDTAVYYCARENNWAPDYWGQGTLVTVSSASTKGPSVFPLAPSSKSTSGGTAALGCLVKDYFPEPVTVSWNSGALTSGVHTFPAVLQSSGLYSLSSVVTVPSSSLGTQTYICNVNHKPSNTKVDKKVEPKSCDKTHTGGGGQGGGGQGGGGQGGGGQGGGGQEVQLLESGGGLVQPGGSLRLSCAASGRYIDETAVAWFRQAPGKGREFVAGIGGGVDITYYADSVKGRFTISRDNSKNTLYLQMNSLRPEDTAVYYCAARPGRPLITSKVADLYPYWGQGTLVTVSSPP
light: DIQMTQSPSSLSASVGDRVTITCRASQDISNSLAWYQQKPGKAPKRLIYAAFSLQSGVPSRFSGSGSGTEFTLTISSLQPEDFATYYCYQYYNYPSAFGQGTKLEIKRTVAAPSVFIFPPSDEQLKSGTASVVCLLNNFYPREAKVQWKVDNALQSGNSQESVTEQDSKDSTYSLSSTLTLSKADYEKHKVYACEVTHQGLSSPVTKSFNRGEC
notes: Monovalent anti-GITR Fab; also called HC anti-GITR Fab-VHH Fusion 1 with LC
For B1, the “IC50 nM Mean, restoration of regulatory T cell suppression of effector T cell proliferation in the presence of GITRL” value (human GITR [1]) was 4.69 nM, the EC50 (human GITR [2]) was 6.8 nM and the binding result (Rabbit serum albumin) was “no binding (tested: 1000 nM highest concentration tested)”. For the same binder, the “IC50 nM GeoMean, inhibition of GITRL stimulation of Jurkat GITR/NFkB luciferase cells” value (human GITR [3]) was 4.1 nM, the “IC50 nM GeoMean, inhibition of GITRL stimulation of Jurkat GITR/NFkB luciferase cells” value (cynomolgus monkey GITR [4]) was 2.27 nM and the EC50 (cynomolgus monkey GITR [5]) was 3.06 nM. For the same binder, the Kd (Pig serum albumin) was 100 nM, the koff (Pig serum albumin) was 0.013 s⁻¹ and the kon (Pig serum albumin) was 120000 M⁻¹ s⁻¹. For the same binder, the Kd (Mouse serum albumin) was 53 nM, the koff (Mouse serum albumin) was 0.0094 s⁻¹ and the kon (Mouse serum albumin) was 180000 M⁻¹ s⁻¹. For the same binder, the Kd (Cow serum albumin) was 460 nM, the koff (Cow serum albumin) was 0.091 s⁻¹ and the kon (Cow serum albumin) was 200000 M⁻¹ s⁻¹. The Kd [6] was 4.4 nM, the koff [6] was 0.00082 s⁻¹ and the kon [6] was 190000 M⁻¹ s⁻¹. The Kd (Human serum albumin) was 0.25 nM, the koff (Human serum albumin) was 6.5e-05 s⁻¹ and the kon (Human serum albumin) was 260000 M⁻¹ s⁻¹. For the same binder, the Kd (Rat serum albumin) was 44 nM, the koff (Rat serum albumin) was 0.007 s⁻¹ and the kon (Rat serum albumin) was 160000 M⁻¹ s⁻¹. It also gave a Kd (Dog serum albumin) of 20 nM, a koff (Dog serum albumin) of 0.0035 s⁻¹ and a kon (Dog serum albumin) of 170000 M⁻¹ s⁻¹. The “IC50 nM GeoMean, inhibition of GITRL co-stimulation of T cell proliferation” value (human GITR [7]) was 4.76 nM.

B2: Antibody II (Fab)
heavy: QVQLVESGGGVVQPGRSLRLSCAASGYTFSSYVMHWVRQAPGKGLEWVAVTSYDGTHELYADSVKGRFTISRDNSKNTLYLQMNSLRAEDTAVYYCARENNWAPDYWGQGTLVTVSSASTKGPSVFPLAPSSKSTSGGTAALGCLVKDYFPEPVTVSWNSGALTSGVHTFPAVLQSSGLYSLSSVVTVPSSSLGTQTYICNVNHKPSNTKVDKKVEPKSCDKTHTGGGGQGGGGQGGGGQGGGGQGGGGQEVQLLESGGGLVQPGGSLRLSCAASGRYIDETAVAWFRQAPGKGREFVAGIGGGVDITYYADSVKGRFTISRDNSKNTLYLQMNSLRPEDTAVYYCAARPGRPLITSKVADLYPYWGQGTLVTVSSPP
light: B1 light
notes: Monovalent anti-GITR Fab; also called HC anti-GITR Fab-VHH Fusion 2 with LC
B2 was tested, and the “IC50 nM Mean, restoration of regulatory T cell suppression of effector T cell proliferation in the presence of GITRL” value (human GITR [1]) was 2.72 nM, the EC50 (human GITR [2]) was 3.25 nM and the binding result (Rabbit serum albumin) was “no binding (tested: 1000 nM highest concentration tested)”. The “IC50 nM GeoMean, inhibition of GITRL stimulation of Jurkat GITR/NFkB luciferase cells” value (human GITR [3]) was 1.68 nM, the “IC50 nM GeoMean, inhibition of GITRL stimulation of Jurkat GITR/NFkB luciferase cells” value (cynomolgus monkey GITR [4]) was 1.26 nM and the EC50 (cynomolgus monkey GITR [5]) was 2.34 nM. For the same binder, the Kd (Pig serum albumin) was 99 nM, the koff (Pig serum albumin) was 0.012 s⁻¹ and the kon (Pig serum albumin) was 120000 M⁻¹ s⁻¹. It also gave a Kd (Mouse serum albumin) of 42 nM, a koff (Mouse serum albumin) of 0.0096 s⁻¹ and a kon (Mouse serum albumin) of 230000 M⁻¹ s⁻¹. For the same binder, the Kd (Cow serum albumin) was 430 nM, the koff (Cow serum albumin) was 0.087 s⁻¹ and the kon (Cow serum albumin) was 200000 M⁻¹ s⁻¹. For the same binder, the Kd [6] was 5.9 nM, the koff [6] was 0.00087 s⁻¹ and the kon [6] was 150000 M⁻¹ s⁻¹. For the same binder, the Kd (Human serum albumin) was 0.4 nM, the koff (Human serum albumin) was 7.8e-05 s⁻¹ and the kon (Human serum albumin) was 190000 M⁻¹ s⁻¹. For the same binder, the Kd (Rat serum albumin) was 51 nM, the koff (Rat serum albumin) was 0.0073 s⁻¹ and the kon (Rat serum albumin) was 140000 M⁻¹ s⁻¹. The Kd (Dog serum albumin) was 20 nM, the koff (Dog serum albumin) was 0.0034 s⁻¹ and the kon (Dog serum albumin) was 170000 M⁻¹ s⁻¹. For the same binder, the “IC50 nM GeoMean, inhibition of GITRL co-stimulation of T cell proliferation” value (human GITR [7]) was 1.84 nM.
